Experiments:
Format in all cases: biochemical, Plasmodium falciparum
pfTopI [1] = assay: Cleavage-ligation assay with radio-labeled DNA substrates in absence or presence of camptothecin; conditions: 60 μM CPT, duplex OL62/OL63, 20 min at 37° C.
Description: Detection of PfTopI activity using radio-labeled DNA substrates: DNA cleavage reactions were carried out by incubating 20 nM duplex OL37/OL56 or OL62/OL63 with 500 fmol of pfTopI or hTopI in the absence or presence of 60 μM CPT for 20 min at 37° C. in 10 mM Tris (pH 7.5), 5 mM MgCl2, and 5 mM CaCl2 in a final volume of 20 μl. After the 20 min incubation, reactions were stopped with 0.5% (w/v) SDS. Samples were subjected to ethanol precipitation, resuspended in 10 μl of 1 mg/ml trypsin and incubated at 37° C. for 30 min. Reaction products were analyzed by denaturing polyacrylamide gel electrophoresis following standard procedures, and radioactive bands were visualized by PhosphorImaging.

pfTopI [2] = assay: RCA-based biosensor (REEAD) circularization of oligonucleotide substrates by purified pfTopI
Description: As shown in FIG. 1A and FIG. 4, in contrast to its human counterpart, pfTopI is able to cleave close to DNA ends with high efficiency. […] To address this possibility, purified pfTopI was incubated with each of the substrates Su2-Su6 (FIG. 1B) and the products analysed using the RCA based detection system as schematically outlined in FIG. 1C. The sequence of the substrates Su4, Su5, and Su6 was modified to match the sequence that was cleaved with high efficiency in substrate XX.
Based on this, five different oligonucleotides with potential of being circularized specifically by pfTopI cleavage-ligation were designed. These oligonucleotides (PfTop1(S1-S5)) all folded into a hairpin structure containing a probe- and a primer-annealing sequence in the single-stranded loop and a potential pfTopI recognizable sequence at the end of the double-stranded stem region (FIG. 1b). […] To allow comparative quantification of signals generated in different reactions, a known concentration of control-circle with a unique probe-annealing sequence was added to the reaction mixtures before RCA and resulting RCPs visualized using a green-fluorescent probe. […]
(§1) The 5′-amine-conjugated primer was coupled to CodeLink Activated Slides (SurModics) according to the manufacturer's description. […] Quantification of pfTopI specific signals was performed as previously described^1.

pfTopI [3] = assay: REEAD in nuclear extract from HEK293T cells with or without spike-in pfTopI; conditions: signals only with spike-in pfTopI
Description: The use of Su2 for detecting pfTopI activity in human cell extracts in the RCA-based biosensor setup was also verified. […] As a control for successful RCA and probe annealing a circularized control circle was added to each sample before annealing to the primer coated slide. […] As expected, comparative levels of green and blue spots corresponding to RCPs from […] and control circles, respectively, could be observed in both samples (FIG. 2A).
The specificity of pfTopI(S1) for pfTopI in crude biological samples was addressed using nuclear extract from human HEK293T cells with or without spike-in pfTopI as a model for Plasmodium infection. […] Consequently, green signals observed in FIG. 22b, right panel, originated from hTopI and pfTopI activity in combination where pfTopI(S1) and S(TopI) competed for reaction by pfTopI at the expense of sensitivity.
Human embryonic kidney HEK293T cells were cultured in Dulbecco's Modified Eagle Medium (GIBCO) supplemented with 10% fetal bovine serum (FBS) (GIBCO), 100 units/mL penicillin and […] streptomycin (Invitrogen). Cells were incubated in a humidified incubator (5% CO2/95% air atmosphere at 37° C.). […]
as §1

pfTopI [4] = assay: REEAD with HRP-mediated colorimetric readout, purified pfTopI; conditions: purified pfTopI circularizing S1
From the text: To investigate if the Plasmodium-specific REEAD could be adapted to simple colorimetric readout, suitable for low-resource settings without compromising sensitivity, an additional enzymatic step was introduced to the assay by coupling streptavidin-fused HRP to biotinylated RCPs as described by Yan, J. et al. An on-nanoparticle rolling-circle amplification platform for ultrasensitive protein detection in biological fluids. Small 6, 2520-2525 (2010). HRP oxidizes colorless tetramethylbenzidine to a blue-colored form, detectable to the naked eye or by spectrophotometric measurements. This, of course, is at the expense of the possibility of multiplexing since RCPs originating from different circles cannot be distinguished. […] This, however, imposed the advantage of preventing competition between S(TopI) and pfTopI(S1) for pfTopI, as discussed above. The two readout formats were compared by reacting pfTopI(S1) with increasing dilutions of extracts from blood sample #2 followed by microscopic visualization of RCPs or by spectrophotometric measurement of HRP substrate conversion. As evident from FIG. 23 colorimetric readout increased sensitivity of REEAD by a factor two compared to microscopic readout. […]

For `CC[C@@]1(O)C(=O)OCc2c1cc1n(c2=O)Cc2cc3ccccc3nc2-1` [camptothecin], which “effect on ligation product formation by pfTopI” value (pfTopI [1]) is on record?
The value was “ligation product is only observed upon incubation of the substrate with pfTopI in the absence of camptothecin”.

B1: S(TopI): self-folding oligonucleotide substrate for human topoisomerase I, SEQ ID NO: 25 (nucleic acid)
chain: AGAAAAATTTTTAAAAAAACTGTGAAGATCGCTTATTTTTTTAAAAATTTTTCTAAGTCTTTTAGATCCCTCAATGCTGCTGCTGTACTACGATCTAAAAGACTTAGA
modifications: listed as DNA, chemistry not fully specified
How did the “circularization (conversion to closed circles) by pfTopI” value (pfTopI [2]; purified recombinant pfTopI, RCA and fluorescent probe readout) turn out when B1 was run?
The value was “circularizes S(TopI)”.

B2: pfTopI(S1): hairpin oligonucleotide sensor circularized by pfTopI, SEQ ID NO: 8 (nucleic acid)
chain: TCTAGAAAGTATAGGAACTTCGAACGACTCAGAATGACTGTGAAGATCGCTTATCCTCAATGCACATGTTTGGCTCCCATTCTGAGTCGTTCGAAGTTCCTATACTTT
modifications: chemistry not fully specified
Which “specificity for pfTopI in crude human cell extract” value (pfTopI [3]) does the source give for B2 here?
Its value is “specificity of pfTopI(S1) for pfTopI even on a background of human nucleus content”.

What about the “detection of pfTopI, spectrophotometric measurement of HRP reaction” value (pfTopI [4]; FIG. 27) of the same molecule?
The value was 2 aM.

And the “detection of pfTopI, direct visual detection of HRP reaction” value (pfTopI [4]; data not shown)?
Its value is 200 aM.

And the “circularization efficiency by pfTopI, substrate signals relative to control circle signals” value (pfTopI [2]; purified pfTopI, compared among the tested substrates)?
Its value is “the most efficient sensor of pfTopI”.

Reference: patent publication US20150018228A1, “ENZYME DETECTION BY MICROFLUIDICS” (priority 2011, published 2015)
